Data as given in US20220112547, “BIOCHEMICAL REACTION METHODS AND REAGENTS COMPRISING INTRINSICALLY DISORDERED REGIONS” (Biocrucible Limited, published 2022).

How the values were obtained:
Gp32-HRP1 = target: T1, Gp32-HRP1 (phage vB_EcoM_NBG1); assay: oligo enriched in phase-separated particles; MgOAc, RPA mix, no crowding agent; details: tags: C-terminal HRP1 IDR (S. cerevisiae Hrp1) and 7xHis; label: FAM
T1 chain: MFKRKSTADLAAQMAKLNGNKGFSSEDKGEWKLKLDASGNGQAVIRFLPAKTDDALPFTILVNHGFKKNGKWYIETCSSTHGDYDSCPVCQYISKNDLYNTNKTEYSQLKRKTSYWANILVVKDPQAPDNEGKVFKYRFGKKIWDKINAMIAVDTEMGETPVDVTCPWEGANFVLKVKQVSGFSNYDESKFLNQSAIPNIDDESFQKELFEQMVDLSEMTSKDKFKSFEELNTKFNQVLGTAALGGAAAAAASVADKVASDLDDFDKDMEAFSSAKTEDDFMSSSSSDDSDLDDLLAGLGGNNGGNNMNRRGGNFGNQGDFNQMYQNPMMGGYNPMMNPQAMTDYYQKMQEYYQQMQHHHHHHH
Procedure: (§1) Reactions were set up according to the following protocol. A reaction mixture was created with the following components: 25 mM Tris HCl pH 8.3, 7.5 mM KOAc, 1 mM DTT, 2.5 mM ATP, 20 mM phosphocreatine, 1 μM creatine kinase, 1 mM dNTPs, 0.2 μM forward primer, 0.2 μM reverse primer, 0.516 μM probe, 22.6 μM Gp32-HRP fusion, 8.4 μM UvsX, 15.3 μM UvsY, 0.135 μM S. aureus DNA polymerase (large subunit), and 0.27 μM Exonuclease III. Gp32, UvsX, UvsY, polymerase and Exonuclease III were prepared as a premix before being added in one step to the mixture of primer, buffer, nucleotides and creatine kinase. The total volume was 44 Once combined, 6 μl of 280 mM MgOAc was added to the mixture to achieve a final concentration of 33 mM. 10 μl of the reaction mix was then transferred to a C-Chip haemocytometer slide which was placed on a heated stage set to 39° C. before being observed under the microscope where images were taken under bright field light conditions and fluorescence conditions.

Gp32-HIS2 = target: T2, Gp32-HIS2 (phage vB_EcoM_NBG1); assay: as above; details: tags: C-terminal HIS2 IDR (human OTX1); label: FAM
T2 chain: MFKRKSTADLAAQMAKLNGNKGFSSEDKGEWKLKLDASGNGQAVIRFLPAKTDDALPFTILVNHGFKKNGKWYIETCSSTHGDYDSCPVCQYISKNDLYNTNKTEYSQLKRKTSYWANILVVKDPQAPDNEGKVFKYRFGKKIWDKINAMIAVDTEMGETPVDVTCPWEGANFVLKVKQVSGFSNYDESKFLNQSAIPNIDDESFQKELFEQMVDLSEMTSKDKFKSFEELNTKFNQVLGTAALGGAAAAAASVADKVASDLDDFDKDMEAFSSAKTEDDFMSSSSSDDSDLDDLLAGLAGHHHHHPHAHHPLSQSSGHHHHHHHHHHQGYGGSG
Procedure: as §1, with “Gp32-HIS2” for “Gp32-HRP”, “Gp32-His2,” for “Gp32,”

Q: What does the source list for CCGCAATGGTGCACTCTCAGTACAATCTGCTCTGATG (ssDNA) [FAM oligo probe]?
A: binding result (Gp32-HRP1): binds; binding result (Gp32-HIS2): binds
